Four molecules from patent publication US20220040297A1 (Chugai, published 2022) can be followed below.

Sequences and labels used below:
B1: NNS6f50 (antibody)
heavy: QVQLVESGGGLVQPGRSLRLSCAASGFTFSNAWMHWVRQAPGKGLEWVAQIKDKSNNYATYYAESVKGRFTISRDDSKNSIYLQMNSLKTEDTAVYYCRYVHYAALTGGLGYYGVDAWGQGTTVTVSSASTKGPSVFPLAPSSKSTSGGTAALGCLVKDYFPEPVTVSWNSGALTSGVHTFPAVLQSSGLYSLSSVVTVPSSSLGTQTYICNVNHKPSNTKVDKKVEPKSCDKTHTCPPCPAPEAAGGPSVFLFPPKPKDTLMISRTPEVTCVVVDVSHEDPEVKFNWYVDGVEVHNAKTKPREEQYASTYRVVSVLTVLHQDWLNGKEYKCKVSNKALPAPIEKTISKAKGQPREPQVYTLPPSRCELTKNQVSLSCAVKGFYPSDIAVEWESNGQPENNYKTTPPVLDSDGSFFLVSKLTVDKSRWQQGNVFSCSVMHEALHNHYTQKSLSLSPDYKDDDDK
chain: EPKSSDKTHTCPPCPAPELLGGPSVFLFPPKPKDTLMISRTPEVTCVVVDVSHEDPEVKFNWYVDGVEVHNAKTKPREEQYNSTYRVVSVLTVLHQDWLNGKEYKCKVSNKALPAPIEKTISKAKGQPREPQVCTLPPSRDELTKNQVSLWCLVKGFYPSDIAVEWESNGQPENNYKTTPPVLDSDGSFFLYSKLTVDKSRWQQGNVFSCSVMHEALHNRYTQKSLSLSP
light: DIVMTQSPLSLPVTPGEPASISCRSSQSLVHSNRNTYLHWYQQKPGQAPRLLIYKVSNRFSGVPDRFSGSGSGTDFTLKISRVEAEDVGVYYCGQGTQVPYTFGQGTKLEIKRTVAAPSVFIFPPSDEQLKSGTASVVCLLNNFYPREAKVQWKVDNALQSGNSQESVTEQDSKDSTYSLSSTLTLSKADYEKHKVYACEVTHQGLSSPVTKSFNRGEC
notes: one-arm antibody
B2: NNS6f56 (antibody)
heavy: QVQLVESGGGLVQPGRSLRLSCAASGFTFSNAWMHWVRQAPGKGLEWVAQIKDKSNNYATYYAESVKGRFTISRDDSKNSIYLQMNSLKTEDTAVYYCRYVHYAAREATRWYYGVDAWGQGTTVTVSSASTKGPSVFPLAPSSKSTSGGTAALGCLVKDYFPEPVTVSWNSGALTSGVHTFPAVLQSSGLYSLSSVVTVPSSSLGTQTYICNVNHKPSNTKVDKKVEPKSCDKTHTCPPCPAPEAAGGPSVFLFPPKPKDTLMISRTPEVTCVVVDVSHEDPEVKFNWYVDGVEVHNAKTKPREEQYASTYRVVSVLTVLHQDWLNGKEYKCKVSNKALPAPIEKTISKAKGQPREPQVYTLPPSRCELTKNQVSLSCAVKGFYPSDIAVEWESNGQPENNYKTTPPVLDSDGSFFLVSKLTVDKSRWQQGNVFSCSVMHEALHNHYTQKSLSLSPDYKDDDDK
chain: EPKSSDKTHTCPPCPAPELLGGPSVFLFPPKPKDTLMISRTPEVTCVVVDVSHEDPEVKFNWYVDGVEVHNAKTKPREEQYNSTYRVVSVLTVLHQDWLNGKEYKCKVSNKALPAPIEKTISKAKGQPREPQVCTLPPSRDELTKNQVSLWCLVKGFYPSDIAVEWESNGQPENNYKTTPPVLDSDGSFFLYSKLTVDKSRWQQGNVFSCSVMHEALHNRYTQKSLSLSP
light: DIVMTQSPLSLPVTPGEPASISCRSSQSLVHSNRNTYLHWYQQKPGQAPRLLIYKVSNRFSGVPDRFSGSGSGTDFTLKISRVEAEDVGVYYCGQGTQVPYTFGQGTKLEIKRTVAAPSVFIFPPSDEQLKSGTASVVCLLNNFYPREAKVQWKVDNALQSGNSQESVTEQDSKDSTYSLSSTLTLSKADYEKHKVYACEVTHQGLSSPVTKSFNRGEC
notes: one-arm antibody
B3: NNS6f52 (antibody)
heavy: QVQLVESGGGLVQPGRSLRLSCAASGFTFSNAWMHWVRQAPGKGLEWVAQIKDKSNNYATYYAESVKGRFTISRDDSKNSIYLQMNSLKTEDTAVYYCRYVHYAAYMLGLGYYGVDAWGQGTTVTVSSASTKGPSVFPLAPSSKSTSGGTAALGCLVKDYFPEPVTVSWNSGALTSGVHTFPAVLQSSGLYSLSSVVTVPSSSLGTQTYICNVNHKPSNTKVDKKVEPKSCDKTHTCPPCPAPEAAGGPSVFLFPPKPKDTLMISRTPEVTCVVVDVSHEDPEVKFNWYVDGVEVHNAKTKPREEQYASTYRVVSVLTVLHQDWLNGKEYKCKVSNKALPAPIEKTISKAKGQPREPQVYTLPPSRCELTKNQVSLSCAVKGFYPSDIAVEWESNGQPENNYKTTPPVLDSDGSFFLVSKLTVDKSRWQQGNVFSCSVMHEALHNHYTQKSLSLSPDYKDDDDK
chain: EPKSSDKTHTCPPCPAPELLGGPSVFLFPPKPKDTLMISRTPEVTCVVVDVSHEDPEVKFNWYVDGVEVHNAKTKPREEQYNSTYRVVSVLTVLHQDWLNGKEYKCKVSNKALPAPIEKTISKAKGQPREPQVCTLPPSRDELTKNQVSLWCLVKGFYPSDIAVEWESNGQPENNYKTTPPVLDSDGSFFLYSKLTVDKSRWQQGNVFSCSVMHEALHNRYTQKSLSLSP
light: DIVMTQSPLSLPVTPGEPASISCRSSQSLVHSNRNTYLHWYQQKPGQAPRLLIYKVSNRFSGVPDRFSGSGSGTDFTLKISRVEAEDVGVYYCGQGTQVPYTFGQGTKLEIKRTVAAPSVFIFPPSDEQLKSGTASVVCLLNNFYPREAKVQWKVDNALQSGNSQESVTEQDSKDSTYSLSSTLTLSKADYEKHKVYACEVTHQGLSSPVTKSFNRGEC
notes: one-arm antibody
B4: NNS6f55 (antibody)
heavy: QVQLVESGGGLVQPGRSLRLSCAASGFTFSNAWMHWVRQAPGKGLEWVAQIKDKSNNYATYYAESVKGRFTISRDDSKNSIYLQMNSLKTEDTAVYYCRYVHYAAAGRWLAYYGVDAWGQGTTVTVSSASTKGPSVFPLAPSSKSTSGGTAALGCLVKDYFPEPVTVSWNSGALTSGVHTFPAVLQSSGLYSLSSVVTVPSSSLGTQTYICNVNHKPSNTKVDKKVEPKSCDKTHTCPPCPAPEAAGGPSVFLFPPKPKDTLMISRTPEVTCVVVDVSHEDPEVKFNWYVDGVEVHNAKTKPREEQYASTYRVVSVLTVLHQDWLNGKEYKCKVSNKALPAPIEKTISKAKGQPREPQVYTLPPSRCELTKNQVSLSCAVKGFYPSDIAVEWESNGQPENNYKTTPPVLDSDGSFFLVSKLTVDKSRWQQGNVFSCSVMHEALHNHYTQKSLSLSPDYKDDDDK
chain: EPKSSDKTHTCPPCPAPELLGGPSVFLFPPKPKDTLMISRTPEVTCVVVDVSHEDPEVKFNWYVDGVEVHNAKTKPREEQYNSTYRVVSVLTVLHQDWLNGKEYKCKVSNKALPAPIEKTISKAKGQPREPQVCTLPPSRDELTKNQVSLWCLVKGFYPSDIAVEWESNGQPENNYKTTPPVLDSDGSFFLYSKLTVDKSRWQQGNVFSCSVMHEALHNRYTQKSLSLSP
light: DIVMTQSPLSLPVTPGEPASISCRSSQSLVHSNRNTYLHWYQQKPGQAPRLLIYKVSNRFSGVPDRFSGSGSGTDFTLKISRVEAEDVGVYYCGQGTQVPYTFGQGTKLEIKRTVAAPSVFIFPPSDEQLKSGTASVVCLLNNFYPREAKVQWKVDNALQSGNSQESVTEQDSKDSTYSLSSTLTLSKADYEKHKVYACEVTHQGLSSPVTKSFNRGEC
notes: one-arm antibody

T1 sequence (P07766 23-126 limits assumed): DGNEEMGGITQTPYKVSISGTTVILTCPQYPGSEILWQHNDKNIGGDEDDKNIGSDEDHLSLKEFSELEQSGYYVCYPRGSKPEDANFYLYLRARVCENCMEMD

This test addresses T1, CD3ε homodimer protein (human, UniProt P07766 23-126, limits assumed).
T1 construct: also called human CD3ε homodimer protein; CD3e homodimer
Nature of the test: SPR (Biacore T200, 25°C); CD3ε homodimer immobilized on CM4, one-arm antibody as analyte.
In general, Kd refers to the constant that tells how readily two partners part at equilibrium. Low values mean higher affinity, high ones lower affinity. In turn, B1 yielded a Kd of 0.071 µM.

For the molecule B2, the Kd was found to be 0.021 µM. As to B3, the Kd was determined as 0.052 µM. B4: the affinity, expressed as Kd, was 0.031 µM.
